From US20250277026A1 (NOVAROCK BIOTHERAPEUTICS, published 2025)

Key:
human Claudin-6 [1] = target: T1, human Claudin-6 (human, UniProt P56747 1-220); experiment: FACS, Claudin-6-HEK293 cells, 10 µg/ml, hybridoma-purified antibody
T1 construct: also called CLDN6
T1 sequence: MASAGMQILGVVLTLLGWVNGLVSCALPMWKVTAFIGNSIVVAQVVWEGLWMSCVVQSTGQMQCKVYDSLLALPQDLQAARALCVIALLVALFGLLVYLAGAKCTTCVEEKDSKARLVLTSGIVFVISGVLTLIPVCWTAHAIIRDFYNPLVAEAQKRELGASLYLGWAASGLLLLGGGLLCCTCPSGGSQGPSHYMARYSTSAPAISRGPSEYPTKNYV

human Claudin-9 = target: T2, human Claudin-9 (human, UniProt O95484 1-217); experiment: FACS, Claudin-9-HEK293 cells, 10 µg/ml, hybridoma-purified antibody
T2 construct: On transfected HEK293 cells; also called CLDN9
T2 sequence: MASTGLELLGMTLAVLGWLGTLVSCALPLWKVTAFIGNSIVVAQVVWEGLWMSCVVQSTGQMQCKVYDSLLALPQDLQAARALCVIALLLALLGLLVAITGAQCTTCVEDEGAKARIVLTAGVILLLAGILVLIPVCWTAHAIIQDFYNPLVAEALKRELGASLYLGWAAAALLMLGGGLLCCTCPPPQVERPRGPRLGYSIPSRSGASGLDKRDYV

human Claudin-6 [2] = target: T1, human Claudin-6; experiment: FACS dose response, Claudin-6-CHO-K1 cells, hybridoma-purified antibody
Procedure: (§1) The anti-CLDN6 antibodies were also evaluated for their binding affinity to Claudin-6 overexpressing cell lines by FACS.

human Claudin-6 [3] = target: T1, human Claudin-6; experiment: FACS dose response, Claudin-6-HEK293 cells, hybridoma-purified antibody
Procedure: as §1

human Claudin-6 [4] = target: T1, human Claudin-6; experiment: FACS, NEC8 cells (endogenous CLDN6), 10 µg/ml, hybridoma-purified antibody
Procedure: (§2) Cells were fixed with 2% PFA (Alfa Aesar, catalog number: J61899) for 15 minutes at 4° C. and then washed. […] Flow cytometric analyses were performed on a flow cytometry instrument (Intellicyte, IQue plus, Sartorius).

human Claudin-6 [5] = target: T1, human Claudin-6; experiment: FACS dose response, NEC8 cells (endogenous CLDN6), hybridoma-purified antibody
Procedure: as §2, §1

human Claudin-3 = target: T3, human Claudin-3 (human, UniProt O15551 1-220); experiment: FACS, CHO-K1 cells overexpressing Claudin-3 (CHO-K1-CLDN3), serial dilution, MFI
T3 construct: On transfected CHO-K1 cells, or endogenous on MCF7 cells; also called CLDN3
T3 sequence: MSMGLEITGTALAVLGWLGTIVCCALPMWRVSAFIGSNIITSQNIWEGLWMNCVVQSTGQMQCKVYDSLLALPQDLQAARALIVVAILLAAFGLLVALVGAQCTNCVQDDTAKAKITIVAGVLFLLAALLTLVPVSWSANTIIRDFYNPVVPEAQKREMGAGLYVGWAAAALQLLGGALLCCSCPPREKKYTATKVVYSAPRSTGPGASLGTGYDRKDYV

fold MFI over isotype control (human Claudin-6 [1]): 60 fold
fold MFI over isotype control (human Claudin-9): 47 fold
EC50 (human Claudin-6 [2]): 3.06 nM
EC50 (human Claudin-6 [3]): 4.11 nM
fold MFI over isotype control (human Claudin-6 [4]): 23 fold
EC50 (human Claudin-6 [5]): 5.63 nM
B1: NR.N6.Ab6 (antibody, V domains shown)
VH: QVQLQESGPGLVKPSETLSLTCTVSGGSISSYYWSWIRQPPGKGLEWIGYIYYSGSTNYNPSLKSRVTISLDTSKNQFSLKLTSVTAADTAVYYCARGSIPVAGTSYFYYYGMDVWGQGTTVTVSS
VL: EIVMTQSPATLSLSPGERATLSCRASQSVSSSYLSWYQQKPGQAPRLLIYGASTRATGIPARFSGSGSGTDFTLTISSLQPEDFAVYYCQQDYNLPWTFGQGTKVEIK
binding result (human Claudin-3): no binding (tested: log 1.8 (about 67 nM))
